Measured values: patent publication US20240124531A1, “COMPOUNDS AND METHODS FOR EXTENDING HALF LIFE OF BIOMOLECULES” (AFFILOGIC, priority 2021, published 2024)

B1: Nanofitin B11 (designed binder)
chain: VKVKFWPRGEEKVVDTSKIAWVLRADKTVMFKYDDNGKKGYGVVLEKDAPKELLDMLARAEREK
notes: Variant of Sac7d; also called anti-albumin Nanofitin
B2: Nanofitin F06 (designed binder)
chain: VKVKFVFSGEEKEVETSKIKWVLRWGKAVGFKYDDQGKIGYGFVAEKDAPKELLDMLARAEREK
notes: also called anti-albumin Nanofitin

Experiments:
[1] = fluorescein alone, single i.v. injection, analysis of literature data (Chahal et al.); cited from earlier work
Rabbit serum albumin = molecular target: T1, Rabbit serum albumin (Rabbit, UniProt P49065 25-608); assay: biolayer interferometry, cross reactivity on albumins of different species; legend: '-' symbol refers to an absence of detectable binding
T1 construct: also called RabSA; RabSa

Mouse serum albumin = molecular target: T2, Mouse serum albumin (Mouse, UniProt P07724 25-608); assay: biolayer interferometry, cross reactivity pattern (graded strength of binding)
T2 construct: also called MSA

[2] = molecular target: T3, Cynomolgus monkey serum albumin (Cynomolgus monkey, UniProt A2V9Z4 25-608); assay: as above
T3 construct: also called CSA

Rat serum albumin = molecular target: T4, Rat serum albumin (Rat, UniProt P02770 25-608); assay: as above
T4 construct: also called RSA

[3] = molecular target: T5, human serum albumin domain III (aa381-585) (human, UniProt P02768 405-609); assay: biolayer interferometry, His-tagged F06 on Ni-NTA biosensors, albumin domain at 250 nM, response at 180 s
T5 construct: range 381-585; The residue numbers probably count on mature albumin (585 residues)
Excerpt: (§1) The albumin is described as having three domains, dubbed domain I, II and III. Interaction of the albumin with the FcRn receptor involves domain I and III. Domain I (aa1-197), domain II (aa189-385), and domain III (aa381-585) and Domain I-II (aa1-385) were obtained from Albumin Bioscience. Interaction of the anti-albumin Nanofitins with the different domains was investigated by biolayer interferometry according to the following procedure. […] The sensors were then allowed to equilibrate for 60 sec in protein free blocking buffer (Thermo Scientific) supplemented with 0.002% of tween20.

[4] = molecular target: T6, human serum albumin Domain I (aa1-197) (human, UniProt P02768 25-221); assay: as above
T6 construct: range 1-197; Domain III ends at 585, so they probably count on mature albumin (585 residues) and not on the precursor entry
Excerpt: as §1

human serum albumin = molecular target: T7, human serum albumin (human, UniProt P02768 25-609, biotinylated (sites not given) in the biolayer interferometry of Example 1); assay: biolayer interferometry (octet red96); biotinylated HSA on streptavidin biosensors, Nanofitin 15.6-1000 nM
T7 construct: Biotinylated HSA immobilised on streptavidin biosensors; also called HSA

T1 sequence (P49065 25-608 limits assumed): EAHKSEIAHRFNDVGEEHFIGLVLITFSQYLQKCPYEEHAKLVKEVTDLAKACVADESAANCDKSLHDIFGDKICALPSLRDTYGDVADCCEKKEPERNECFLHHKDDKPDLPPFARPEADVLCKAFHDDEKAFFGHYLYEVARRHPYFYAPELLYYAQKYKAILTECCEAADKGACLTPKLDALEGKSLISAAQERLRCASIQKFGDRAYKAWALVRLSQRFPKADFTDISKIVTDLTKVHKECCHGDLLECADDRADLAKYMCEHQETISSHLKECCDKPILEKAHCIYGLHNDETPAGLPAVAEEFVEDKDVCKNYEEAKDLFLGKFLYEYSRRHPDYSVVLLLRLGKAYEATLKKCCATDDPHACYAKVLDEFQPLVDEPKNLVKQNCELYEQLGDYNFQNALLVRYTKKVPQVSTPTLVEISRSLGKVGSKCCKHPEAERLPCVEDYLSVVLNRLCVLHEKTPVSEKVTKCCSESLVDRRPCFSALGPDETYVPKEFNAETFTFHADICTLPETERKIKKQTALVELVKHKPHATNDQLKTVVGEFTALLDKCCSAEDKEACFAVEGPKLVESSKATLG
T3 sequence (A2V9Z4 25-608 limits assumed): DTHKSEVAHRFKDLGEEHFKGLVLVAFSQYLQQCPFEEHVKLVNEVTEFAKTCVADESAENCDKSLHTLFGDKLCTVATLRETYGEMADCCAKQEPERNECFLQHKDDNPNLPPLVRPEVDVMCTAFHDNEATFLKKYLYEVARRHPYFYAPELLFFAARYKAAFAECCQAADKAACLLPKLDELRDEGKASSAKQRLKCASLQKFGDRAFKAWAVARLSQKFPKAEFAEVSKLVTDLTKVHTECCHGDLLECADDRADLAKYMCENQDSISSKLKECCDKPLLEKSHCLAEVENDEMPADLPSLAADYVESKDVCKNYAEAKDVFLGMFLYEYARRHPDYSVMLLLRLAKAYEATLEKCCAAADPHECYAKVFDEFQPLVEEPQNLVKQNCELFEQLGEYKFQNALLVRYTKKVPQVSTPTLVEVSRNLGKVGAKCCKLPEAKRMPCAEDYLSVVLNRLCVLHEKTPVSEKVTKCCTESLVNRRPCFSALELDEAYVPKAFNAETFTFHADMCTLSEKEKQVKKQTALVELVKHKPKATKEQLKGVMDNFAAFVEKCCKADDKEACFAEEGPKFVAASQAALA
T4 sequence (P02770 25-608 limits assumed): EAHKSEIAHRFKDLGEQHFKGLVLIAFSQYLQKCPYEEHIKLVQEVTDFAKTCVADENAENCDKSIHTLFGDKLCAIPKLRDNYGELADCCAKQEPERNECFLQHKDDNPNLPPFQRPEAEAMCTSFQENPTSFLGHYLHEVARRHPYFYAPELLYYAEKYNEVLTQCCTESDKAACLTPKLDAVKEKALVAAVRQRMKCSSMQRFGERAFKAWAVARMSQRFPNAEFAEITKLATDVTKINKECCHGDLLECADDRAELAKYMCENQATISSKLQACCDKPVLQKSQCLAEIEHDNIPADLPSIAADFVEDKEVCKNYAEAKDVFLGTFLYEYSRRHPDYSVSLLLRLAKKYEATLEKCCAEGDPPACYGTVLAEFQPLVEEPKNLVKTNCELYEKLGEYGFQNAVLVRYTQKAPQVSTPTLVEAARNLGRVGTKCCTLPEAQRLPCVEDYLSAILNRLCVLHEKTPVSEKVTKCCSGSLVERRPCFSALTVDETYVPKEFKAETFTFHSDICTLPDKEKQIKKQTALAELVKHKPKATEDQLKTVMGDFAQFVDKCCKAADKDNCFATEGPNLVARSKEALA
T2 sequence (P07724 25-608 limits assumed): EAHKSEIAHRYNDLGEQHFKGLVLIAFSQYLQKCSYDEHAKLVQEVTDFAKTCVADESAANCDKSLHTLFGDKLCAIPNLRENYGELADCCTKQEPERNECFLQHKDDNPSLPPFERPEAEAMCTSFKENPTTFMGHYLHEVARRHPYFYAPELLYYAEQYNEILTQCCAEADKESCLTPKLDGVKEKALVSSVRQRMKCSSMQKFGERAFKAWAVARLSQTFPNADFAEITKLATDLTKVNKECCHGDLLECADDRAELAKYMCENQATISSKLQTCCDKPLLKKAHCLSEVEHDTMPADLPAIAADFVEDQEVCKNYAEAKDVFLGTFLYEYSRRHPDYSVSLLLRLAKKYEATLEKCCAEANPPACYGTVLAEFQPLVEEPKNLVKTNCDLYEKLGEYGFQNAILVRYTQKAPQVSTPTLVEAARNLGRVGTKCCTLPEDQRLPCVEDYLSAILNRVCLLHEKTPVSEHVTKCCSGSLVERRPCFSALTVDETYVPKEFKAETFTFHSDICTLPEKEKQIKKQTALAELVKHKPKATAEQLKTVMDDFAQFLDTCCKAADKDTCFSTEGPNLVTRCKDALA

Row | Molecule | t1/2 in mouse serum [1] | binding result (Rabbit serum albumin) | binding result (Mouse serum albumin) | binding result [2] | binding result (Rat serum albumin) | binding result [3] | binding result [4] | Kd (human serum albumin) [nM] | koff (human serum albumin) [s⁻¹]
1 | O=C1OC2(c3ccc(O)cc3Oc3cc(O)ccc32)c2ccccc21 [Fluorescein] | about 8 min |  |  |  |  |  |  |  | 
2 | B1 |  | no binding | binds | binds | binds |  |  |  | 
3 | B2 |  | no binding |  |  |  | no binding (tested: 250 nM) | no binding (tested: 250 nM) | 8.38 | 0.000304
